Measurements reported in the supplement of paper PMC12042874.
± gives the uncertainty stated by the source.

Experiment: amyloid nucleation score (Sup35N fusion, yeast selection) (log enrichment); library NNK3; higher = more nucleation; inactive = no reads after selection
In short: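 On medium lacking adenine and uracil, psi-negative yeast expressing peptides of 20 random codons fused to Sup35N were grown 7 days at 30°C after a 24-hour induction with 100 μM copper sulfate. Illumina sequencing of input and output plasmid inserts gave the reads, and sequences under 100 input reads were excluded. The nucleation score is the DiMSum log enrichment of output over input reads, centred on the mode score of non-aggregating sequences.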

Substance | amyloid nucleation score
NGNNLIRVFVWYYDNS | 2.99 ± 0.08
NGRNSRQTVIRIVSRWVVNH | inactive
NGTLSYCPDKELSTLVFLHY | inactive
NGVVMVKSRNVPADKSNCDG | inactive
NGYFLSQGGLLSLIMHFKIV | -0.041 ± 0.77
NHCYLLL | inactive
NHLLSSSGSNGMLKLIRFIG | inactive
NHLSPMRTKLYLKETNPSSA | inactive
NIAIVW | inactive
NIHFSITAQ | inactive
NIIKSTVIY | inactive
NIIKTLAVRSGRRFRFLVRW | inactive
NIILCCAKVFKPYMSTMTTP | 1.98 ± 0.061
NILEYYLLTGLYVAFLYLNR | inactive
NINRSPWLIGWGLPKLKRDH | inactive
NINSTFQRQVLSDCLVQWYM | inactive
NINVRTELVQRKGNILP | 0.213 ± 0.17
NIRWMFNLYACRLLRLVHF | 0.44 ± 0.23
NISWVAFMIVLHLDRLNMF | inactive
NIVERQDLLLGLANNWLHLT | inactive
NIVQYVWVDDWVFRCRCGAK | 3.15 ± 0.069
NIWESAVPWVTDALVYKNRV | -0.323 ± 0.96
NKHMGKQLAIAMAVRCAYSG | 0.326 ± 0.33
NKNGSHL | inactive
NKYLMINLGYQGSKENDIGV | inactive
NLAFTNVKVWVWSFSLLLYC | inactive
NLAIL | inactive

Substance | amyloid nucleation score
NLCQSAGRFCWG | inactive
NLCSCDNWRRRRCASMWALV | inactive
NLDRLWTNQGFAFWIRTYVV | inactive
NLEFFCKDV | inactive
NLFSEFGMFNGKGPVGTSVG | inactive
NLHNVMRKFTQGFSGHKTKL | inactive
NLKLAWNRLSRMHWFLMNRS | inactive
NLLLFF | 1.82 ± 0.096
NLMFVLHRTSWSNFCLKRKC | inactive
NLNGFYSRGVIFR | inactive
NLPHRLVTNRMCGAGGFGII | inactive
NLPLYPSGFFKSMIRNRVLT | 1.66 ± 0.083
NLRHYTVDMLCSNYEYVIVY | inactive
NLRKKWFWAYNPSYETSPLV | inactive
NLSNLLNLVRLVRGRLGNAA | inactive
NLSVGRALTWHPSPWDQQIW | inactive
NLTGCMDLC | 0.853 ± 0.19
NLTINVVAVQFLFMTTGY | 2.63 ± 0.08
NLYMDEHHFKAFNGCTNQLI | inactive
NLYRRYHVHSKRALSIYSTP | -0.033 ± 0.23
NMDNHTPG | inactive
NMDSAWKCPHPYKSLTIVCF | inactive
NMFSGVG | inactive
NMGALIRSRQVEVSHKRVSG | inactive
NMIFA | inactive
NMMPREPDTFMGYSGRRLCV | -0.284 ± 1.1
NMRGEFQTLANWVWLLQRVL | inactive

Substance | amyloid nucleation score
NMSWNVCVRFK | 1.87 ± 0.068
NMVHCVLCIAHEHLKVFVMC | inactive
NMVIV | inactive
NNDIVKGSPPPWVMFLVALH | inactive
NNERITWERDIRSRCFPVLV | inactive
NNGSP | inactive
NNGSSRYMWSSYFLVGY | inactive
NNIFWMRFMFDPWRR | 1.04 ± 0.21
NNLRNIPE | inactive
NNLSNWIRKVCNSYYHPTYQ | inactive
NNQCKACSLWWQSSYPDKMF | inactive
NNTCMNGAVLWSEMAKTGGC | inactive
NPCHCQRRINFVL | inactive
NPFLSCKNYGICSYVGTNVF | 1.09 ± 0.096
NPSTLYCGSLHSLVLRSFLI | inactive
NPVGT | inactive
NQTGSSRTSCCMDRWLMYIA | inactive
NRALNW | inactive
NRFVDLGGQHDTHCVRGYGL | inactive
NRFVNLSNRMVYDFRYRMAV | inactive
NRGLWRM | inactive
NRGSGRSMYMRSSFYSESGS | 0.522 ± 0.28
NRLRV | inactive
NRNATSCGKPAFNKWNYFCQ | inactive
NRRWILRRLLPSVNLSE | inactive
